“Also recorded” adds a separate entry of the source.
Tests used:
[1] = tested on: pro-collagen type 1; assay: pro-collagen type 1 production by human skin fibroblasts; type: cell-based; conditions: TGF-beta, 10 nM, FIG. 21
From the text: To test this we used a cell culture model of skin healing/scarring, which employed the use of primary human skin fibroblasts derived from foreskins collected post circumcision. These have been used extensively in the past to grown in culture and treated with agents that are known to drive wound healing and or scarring. We were also interested in a rare form of skin fibrosis/scarring that can lead to systemic disease and death known as nephrogenic systemic fibrosis (NSF). NSF is a complication of NMR diagnostics in renal impaired patients, where gadolinium (GAD), a heavy metal, is used as a contrast agent, but in some cases appears to deposit in skin. Although the mechanism for development of skin fibrosis and subsequent systemic disease is not yet completely understood, we have developed a model that has allowed elucidation of the probable pathway to skin fibrosis (Bhagavathula, N., M. K. Dame, M. DaSilva, W. Jenkins, M. N. Aslam, P. Perone and J. Varani (2010)). “Fibroblast response to gadolinium: role for platelet-derived growth factor receptor.” Invest Radiol 45(12): 769-777). This disease is characterized as a hyperproliferative disease, and in our model it was shown that PDGF produced by resident skin fibroblasts are stimulated by GAD to increase their production of PDGF which acts to induce proliferation and the increased production of MMPs, regulators of ECM breakdown and thus turnover, including the major MMP, MMP-1. At the same time tissue inhibitors of MMPs (TIMPs) are also affected by exposure to GAD. […]
We examined the role of CCN3 and CCNp in fibroproliferative/fibrotic responses in human dermal fibroblasts exposed to Omniscan, one of the gadolinium-based contrast agents associated with development of nephrogenic systemic fibrosis. […] Cellular proliferation was assessed along with MMP-1 (by ELISA and gelatin zymography), TIMP-1 (by ELISA) and COL1 (by ELISA) in the absence and presence of CCN3 and CCNp. […] In parallel, CCN3 production was assessed in control and Omniscan-treated cells. […]

[2] = tested on: TIMP-1; assay: TIMP-1 production by human skin fibroblasts; type: cell-based
From the text: (§1) To test this we used a cell culture model of skin healing/scarring, which employed the use of primary human skin fibroblasts derived from foreskins collected post circumcision. These have been used extensively in the past to grown in culture and treated with agents that are known to drive wound healing and or scarring. We were also interested in a rare form of skin fibrosis/scarring that can lead to systemic disease and death known as nephrogenic systemic fibrosis (NSF). NSF is a complication of NMR diagnostics in renal impaired patients, where gadolinium (GAD), a heavy metal, is used as a contrast agent, but in some cases appears to deposit in skin. Although the mechanism for development of skin fibrosis and subsequent systemic disease is not yet completely understood, we have developed a model that has allowed elucidation of the probable pathway to skin fibrosis (Bhagavathula, N., M. K. Dame, M. DaSilva, W. Jenkins, M. N. Aslam, P. Perone and J. Varani (2010)). “Fibroblast response to gadolinium: role for platelet-derived growth factor receptor.” Invest Radiol 45(12): 769-777). This disease is characterized as a hyperproliferative disease, and in our model it was shown that PDGF produced by resident skin fibroblasts are stimulated by GAD to increase their production of PDGF which acts to induce proliferation and the increased production of MMPs, regulators of ECM breakdown and thus turnover, including the major MMP, MMP-1. At the same time tissue inhibitors of MMPs (TIMPs) are also affected by exposure to GAD. […] It appears that local fibroblasts then respond to this increased TGF-beta by increasing their production of ECM, including predominantly collagen type 1.
(§2) We examined the role of CCN3 and CCNp in fibroproliferative/fibrotic responses in human dermal fibroblasts exposed to Omniscan, one of the gadolinium-based contrast agents associated with development of nephrogenic systemic fibrosis. These studies were carried out as we have previously described (Riser, B. L., N. Bhagavathula, P. Perone, K. Garchow, Y. Xu, G. J. Fisher, F. Najmabadi, D. Attili and J. Varani (2012)). “Gadolinium-induced fibrosis is counter-regulated by CCN3 in human dermal fibroblasts: a model for potential treatment of nephrogenic systemic fibrosis.” J Cell Commun Signal 6(2): 97-105.). In our studies, human dermal fibroblasts were exposed to Omniscan; or to PDGF and TGF-β1 as controls. Cellular proliferation was assessed along with MMP-1 (by ELISA and gelatin zymography), TIMP-1 (by ELISA) and COL1 (by ELISA) in the absence and presence of CCN3 and CCNp. CCN3 and CCNp38 was added to cells at 10 nM concentration and at the same time as PDGF. In parallel, CCN3 production was assessed in control and Omniscan-treated cells. In most case the results shown (each bar) are the mean of 3-5 separate experiments, using fibroblasts from different donors. CCN3 was produced in our laboratory from the human embryonic kidney cell line (HEK-293) transfected with the complete human CCN3 gene, and producing an approximate 55 kDa, full-length CCN3 product. A second source of CCN3 was obtained from Pepro Tech Corporation (Rocky Hill, NJ) and is produced in a prokaryote cell line.
Next we created and tested for efficacy, additional CCNp including those with the cysteines intact (native sequence) from CCNp37 and CCNp38 and those that were modified by either shortening the peptide by 1 or 2 amino acids or lengthening by one amino acid. […]

[3] = tested on: CCN2 receptor; assay: adhesion of mesangial cells to CCN2 coated plates; type: cell-based, rat; conditions: 27 nM, rodent mesangial cells
From the text: The peptides selected above, and shown in FIG. 5, were synthesized and tested in the three different in vitro assays constructed to model fibrosis, or fibrosis-related pathology in vivo for anti-fibrotic activity. These assays have been used extensively by us and by others, and are highly predictive of related responses in vivo, including those occurring in humans. One in vitro assay, i.e., of cell adhesion in vitro was used. There is a requirement for adhesion in wound healing and fibrosis, with cells responding to the binding of CCN2 to their receptors for other critical activities. Also alteration of cell attachment and receptor binding is implicated in other non-fibrotic diseases, previously named in this application. For this adhesion assay, a well of a culture plate was coated with CCN2 protein and then rat mesangial cells were added for a defined period. […] After a standard period of incubation, the cells are washed to remove non-attached cells. These adherent cells are then removed and counted to determine the percent of the total cells that adhered. The ability of each peptide to block this binding was examined by preincubating cells with the peptide of interest. Controls were used for comparison without CCN2 coating.

[4] = tested on: human skin fibroblasts; assay: human skin fibroblast proliferation; type: cell-based
From the text: as §1, §2
Next we created and tested for efficacy, additional CCNp including those with the cysteines intact (native sequence) from CCNp37 and CCNp38 and those that were modified by either shortening the peptide by 1 or 2 amino acids or lengthening by one amino acid. These agents were added to human skin fibroblasts in increasing concentrations from 1 nM to 100 nM and compared to the equal concentration of CCN3 (SEQ. ID. NO: 67). They were added just prior to the addition of either TGF-beta or PDGF, depending on the experiment.

[5] = tested on: BTBR Ob/Ob mouse; assay: BTBR Ob/Ob mouse as model of liver disease; type: in vivo; conditions: 8 weeks of treatment
Method: This was carried out using the BTBR Ob/Ob mouse strain that has a defective leptin receptor that results in increased appetite. As a result it rapidly gains weight over the control strain and becomes hyperglycemic at about one month of age, going on to develop renal disease resembling that in humans. This is regarded by some to be the rodent model best mirroring renal disease in humans as a complication of diabetes. Animals were treated with either rCCN3 (SEQ. ID. NO: 67) or CCNp38 (SEQ. ID. NO: 38) beginning at 9 weeks of age, when early renal disease has been documented. The disease was allowed to develop for 9 weeks, then treatment started. Mice were treated 3 times per week for 8 weeks. At 17 weeks, blood and urine were collected, and animals sacrificed with organ samples collected. The effect of treatment with either CCN3 (2 concentrations, 2 or 20× the circulating amounts) or mimic peptide (CCNp38, 2 concentrations, 20 or 200× the equivalent molar circulating concentration of CCN3) was tested. Assays to determine the effect of CCN3 or peptide on expression of target fibrosis genes and clinical pathology were determined using methods as previously described (Riser, Amer J Pathology 2009) and (McIntosh, L M, et al., Selective CCR2-targeted macrophage depletion ameliorates experimental mesangioproliferative glomerulonephritis, Clinical and Experimental Immunology, 2008, 155, 295-303).
Since a common complication of diabetes is fatty liver, hepatitis, NASH, and in some cases liver fibrosis, we used the BTBR Ob/Ob mouse experiments described above as a model of human liver disease to examine the possibility that CCN3 or more particularly CCNp peptides might provide a treatment to prevent, treat, or reverse the liver disease described above.

B1: CCN3: full-length recombinant human CCN3 protein (SEQ. ID. No. 67), commercial (Pepro Tech) or made in HEK-293 (protein)
chain: MQVAATQRCPPQCPGRCPATPPTCAPGVRAVLDGCSCCLVCARQRGESCSDLEPCDESSGLYCDRSADPSNQTGICTAVEGDNCVFDGVIYRSGEKFQPSCKFQCTCRDGQIGCVPRCQLDVLLPEPNCPAPRKVEVPGECCEKWICGPDEEDSLGGLTLAAYRPEATLGVEVSDSSVNCIEQTTEWTACSKSCGMGFSTRVTNRNRQCEMLKQTRLCMVRPCEQEPEQPTDKKGKKCLRTKKSLKAIHLQFKNCTSLHTYKPRFCGVCSDGRCCTPHNTKTIQAEFQCSPGQIVKKPVMVIGTCTCHTNCPKNNEAFLQELELKTTRGKM
**Q.** What does the source list for B1?
**A.** block of TGF-beta-induced increase in pro-collagen production [1]: completely block the increase; block of PDGF stimulated TIMP-1 production ([2]; FIGS. 28-30): unable to block the increase in TIMP-1; block of PDGF-induced increase in TIMP-1 production ([2]; PDGF, 10 nM, FIG. 19): neither CCNp38-3 (Seq. ID. No. 56) nor CCN3 (SEQ. ID. No. 67) is able to block or reduce the increase in TIMP-1 production; effect on TIMP-1 production with TGF-beta ([2]; TGF-beta (fails to stimulate), FIG. 20): neither CCNp38-3 nor CCN3 have an effect; also recorded: neither CCNp38-3 or CCN3 have an effect; inhibition of cellular adhesion to CCN2 coated plates [3]: some inhibition; inhibition of PDGF-stimulated proliferation, comparison of modifications ([4]; 1 nM to 100 nM, FIGS. 22-24): dose-dependent efficacy; reduction in PDGF-stimulated proliferation ([4]; 1 nM, FIG. 22): slightly decreased proliferation; reduction in PDGF-stimulated proliferation ([4]; 10 nM, FIG. 23): 33%; reduction in PDGF-stimulated proliferation ([4]; 100 nM, FIG. 24): 46%; block of PDGF-stimulated fibroblast proliferation ([4]; PDGF, 10 nM, FIG. 15): this stimulation is blocked; effect on baseline cell growth ([4]; TGF-beta (does not stimulate proliferation), FIG. 16): neither CCN3 (SEQ. ID. No. 67) nor CCNp38-3 (Seq. ID. No. 56) has an effect on baseline cell growth; effect on increased liver weight ([5]; FIG. 41): slightly reduces this increase; effect on increased liver mRNA levels for CCN2 ([5]; liver, two doses, FIG. 42): greatly reduces or blocks the increase in a dose-dependent manner; effect on increased liver mRNA levels for Col1A2 ([5]; liver, two doses, FIG. 43): dose-dependently reduced, or blocked the increase in collagen expression; also recorded: reduced

From patent US12024544B2, “CCN3 and CCN3 peptides and analogs thereof for therapeutic use” (Rosalind Franklin University of Medicine & Science, priority 2010, dated 2024)
